The values that follow come from patent US20150167106 (NEC Solution Innovators, Ltd., published 2015).

For data set [1], the target named is HA1Aichi (hemagglutinin HA1) (Influenza A virus A/Aichi/2/1968, UniProt P03437 SEQ:17-345). Briefly: SPR. Particulars: tags: Sino Biological #11707-V08H1.
Data set [2] deals with BSA (bovine serum albumin) (Bos taurus, UniProt P02769 P02769:25-607). Nature of the data set: SPR; specificity control. Particulars: tags: Nippon Gene.
For data set [3], the target named is MIF (macrophage migration inhibitory factor) (UniProt P14174 P14174:2-115). Nature of the data set: SPR; specificity control. The following applies: tags: His tag; ATGen.
Sequence of MIF (macrophage migration inhibitory factor) (P14174 2-115, one chain of several): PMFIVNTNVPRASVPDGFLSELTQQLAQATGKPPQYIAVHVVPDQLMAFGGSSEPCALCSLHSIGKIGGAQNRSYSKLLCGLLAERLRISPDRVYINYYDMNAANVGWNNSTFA
The target in data set [4] is T1, HA1Aichi (hemagglutinin HA1) (Influenza A virus A/Aichi/2/1968, UniProt P03437 SEQ:17-345). Briefly: SPR. The following applies: tags: Sino Biological #11707-V08H1. This is another data set of the same source.
Data set [5] has as its target T1, HA1Aichi (hemagglutinin HA1). Briefly: SPR; negative control. The following applies: tags: Sino Biological #11707-V08H1. In general terms: Surface plasmon resonance follows binding to a sensor surface in real time, without labels.

Sequence of BSA (bovine serum albumin) (P02769 25-607, one chain of several): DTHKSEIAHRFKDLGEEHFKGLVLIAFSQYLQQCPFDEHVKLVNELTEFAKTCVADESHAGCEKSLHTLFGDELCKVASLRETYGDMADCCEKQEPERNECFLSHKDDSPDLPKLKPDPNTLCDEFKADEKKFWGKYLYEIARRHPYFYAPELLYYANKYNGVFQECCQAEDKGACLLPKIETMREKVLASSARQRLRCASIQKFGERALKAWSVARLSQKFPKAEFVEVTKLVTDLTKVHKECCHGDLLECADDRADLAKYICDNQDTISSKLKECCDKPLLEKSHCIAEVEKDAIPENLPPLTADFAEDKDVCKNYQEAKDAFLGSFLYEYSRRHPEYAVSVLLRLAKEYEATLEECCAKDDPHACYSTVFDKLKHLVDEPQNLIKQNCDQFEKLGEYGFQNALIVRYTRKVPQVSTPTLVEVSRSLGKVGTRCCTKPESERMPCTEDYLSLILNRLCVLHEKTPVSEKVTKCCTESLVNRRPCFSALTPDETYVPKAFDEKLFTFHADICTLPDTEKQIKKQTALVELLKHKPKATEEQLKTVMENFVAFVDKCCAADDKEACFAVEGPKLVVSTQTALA

B1: RHA1635_s62 (ssDNA)
DNA: GGGGCCCACCCTCTCGCTGGCGGCTCTGTTCTGTTCTCGTCTCCTTGATTTCTGTGGGCCCC
B1: in data set [1], the binding result was “binds”.

B2: RHA0385_s28 (ssDNA)
DNA: TTGGGGTTATTTTGGGAGGGCGGGGGTT
For the molecule B2, the binding result in data set [1] is recorded as “binds”.

B3: RHA0002 (ssDNA)
DNA: GGTTAGCCCGTCCCGAGATAACTCGGGGTGTTTGATGGTTTGGTCTGGTTGGCTTAACACACGGCGGCTGTAG
modifications: 3' poly(dA)24 tail for SPR
With B3, the binding result in data set [2] and in data set [3] was “no binding” each time.

B4: RHA1634_s60 (ssDNA)
DNA: GGGCACCCTCTCGCTGTACGGTTGATGCACGTTTCTTTCTCTTTATATTGCTGGGTGCCC
As to B4, the binding result in data set [1] was “binds”.

B5: RHA0006_s19 (ssDNA)
DNA: GGGTTTGGGTTGGGTTGGG
modifications: 3' poly(dA)24 tail for SPR
For the molecule B5, the binding result in data set [2] and in data set [3] was “no binding” throughout.

B6: RHA0006 (ssDNA)
DNA: GGTTAGCCCGTCCCGAGATAACTCGGTGTGTTGGGTTTGGGTTGGGTTGGGTCTTAACACACGGCGGCTGTAG
modifications: 3' poly(dA)24 tail for SPR
As for B6, the binding result in data set [2] and in data set [3] was “no binding” throughout.

B7: RHA0111 (ssDNA)
DNA: CCTGCACCCAGTGTCCCGTGCTCCGGGGGTTGGGCGTGGTGGGTCTGTCGGGTTTCGGACGGAGAGGAGGACGG
modifications: 3' poly(dA)24 tail for SPR
B7: the binding result in data set [2] and in data set [3] was “no binding” each time.

B8: RHA0471_s51 (ssDNA)
DNA: TCCTCGTTGGGGGTGGTGGTGGGTTTCGGTTCATGGGTGGGACGGAGAGGA
For the molecule B8, the binding result in data set [1] is on record as “binds”.

B9: RHA0002_s33 (ssDNA)
DNA: GTGTTTGATGGTTTGGTCTGGTTGGCTTAACAC
modifications: 3' poly(dA)24 tail for SPR
Regarding B9, the binding result in data set [2] and in data set [3] was “no binding” each time.

B10: RHA0002_s33 (ssDNA)
DNA: B9 DNA
For the molecule B10, the binding result in data set [1] is recorded as “binds”.

B11: RHA0006_s19_d5 (ssDNA)
DNA: GGGTTTGGGTTGGGTTGGGTTTTTGGGTTTGGGTTGGGTTGGG
modifications: 3' poly(dA)24 tail for SPR; 3' biotin (detection) or 3' amino (capture) for ELAA
With B11, the binding result in data set [4] was “binds”.

B12: Control (ssDNA)
DNA: CGGCGTTTGGTTGGCGTGAACCATTTTTAAGTT
modifications: 3' poly(dA)24 tail for SPR; 3' biotin for ELAA
Consider B12, for which the binding result in data set [5] was “no binding”.

B13: RHA0127 (ssDNA)
DNA: CCTGCACCCAGTGTCCCTGGGTCGGCTAATTTGGCATTTGGGGTGGTTTGGGGGGGGGACGGAGAGGAGGACGG
modifications: 3' poly(dA)24 tail for SPR
In the case of B13, the binding result in data set [2] and in data set [3] was “no binding” each time.
